In US20110287023A1 (AstraZeneca / MedImmune, published 2011):

T1: HMGB1 B-box peptide 108-138 (UniProt P09429 108-138, biotinylated)
T1 peptide (looked up): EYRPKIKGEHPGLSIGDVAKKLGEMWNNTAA

T2: HMGB1 C-terminal tail peptide 188-215 (UniProt P09429 188-215, biotinylated)
T2 peptide (looked up): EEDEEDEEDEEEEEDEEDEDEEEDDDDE

T3: HMGB1 in joint lysate of adjuvant induced arthritis (AIA) rats (rat, UniProt P63159 2-215)
T3 construct: also called HMGB1 from arthritis joints; joint lysate HMGB1
T3 sequence (looked up): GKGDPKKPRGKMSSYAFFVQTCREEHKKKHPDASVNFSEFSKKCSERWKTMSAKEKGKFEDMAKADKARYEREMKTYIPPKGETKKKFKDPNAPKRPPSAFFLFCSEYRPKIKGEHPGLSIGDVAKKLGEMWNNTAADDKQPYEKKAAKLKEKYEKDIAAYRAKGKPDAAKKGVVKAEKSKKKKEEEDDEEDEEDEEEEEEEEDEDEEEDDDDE

T4: recombinant rat HMGB-1 labelled with europium (rat, UniProt P63159 1-215, limits assumed, Eu label, molar ratio HMGB-1 to Eu 1:5)
T4 construct: also called Europium-labeled HMGB-1
T4 sequence (looked up): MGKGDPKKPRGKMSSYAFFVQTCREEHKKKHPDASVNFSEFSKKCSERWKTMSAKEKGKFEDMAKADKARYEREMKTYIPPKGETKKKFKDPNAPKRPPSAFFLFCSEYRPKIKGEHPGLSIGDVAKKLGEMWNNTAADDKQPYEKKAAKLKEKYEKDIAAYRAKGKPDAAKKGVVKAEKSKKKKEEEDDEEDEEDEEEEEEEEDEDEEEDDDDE

B1: human anti-HMG1 antibody G4 (antibody, IgG1, V domains shown)
VH: EVQLLESGGGLVQPGGSLRLSCAASGFTFSWYDMTWVRQAPGKGLEWVSSISPSGGYTKYADSVKGRFTISRDNSKNTLYLQMNSLRAEDTAVYYCTTEFYDYLDVWGKGTTVTVSS
VL: DIQMTQSPGTLSLSPGEGATLSCRASQSVSSTYLAWYQQKPGQAPRLLIYEASKRATGTPARFSGSGSGTDFTLSISSLEPEDFAVYYCQHRHNWPPQWTFGQGTKVEVK
notes: full length IgG1 made from a human Fab phage clone; also called ATCC PTA-6258
B2: human anti-HMG1 antibody E11 (antibody, IgG1, V domains shown)
VH: EVQLLESGGGLVQPGGSLRLSCAASGFTFSRYQMNWVRQAPGKGLEWVSSISPSGGHTHYADSVKGRFTISRDNSKNTLYLQMNSLRAEDTAVYYCAKDGRQGKISTVDHWGQGTLVTVSS
VL: DIQMTQSPGTLSLSPGERATLSCRASQSVRSNFLAWYQQKPGQAPRLLIYGASRRASGIPDRFSGSGFGADFTLSISRLEPEDFAVYYCQQYGSSPNTFGQGSRVEIK
notes: full length IgG1 made from a human Fab phage clone

Columns and labels:
[1] = biological target: T1, HMGB1 B-box peptide 108-138; experiment: ELISA on biotinylated overlapping peptides
Protocol: (§1) The plate was then blocked with 4% milk powder dissolved in PBS at 37° C. for 1 hour. The blocking solution was removed and replaced with human anti-HMG1 antibodies at various concentrations (see FIGS. 5A-B). […] HRP activity was detected with Sureblue HRP substrate (KPL). Plates were read at 450 nm using a Kinetic Microplate Reader (Molecular Devices). […] After washing and blocking with 1% BSA in PBS, the biotinylated peptides were individually added into the avidin coated wells and incubated for 30 min at room temperature. The serial diluted antibody G4, S16 and S6 at the initial concentration at 10 μg/ml were then transferred into the wells followed by adding mouse anti human IgG-HRP conjugate (Pierce). Detection was accomplished by adding 50 μl of tetramethylbenzidine (TMB) substrate (KPL) and the absorbance was read at 450 nm.

[2] = biological target: T2, HMGB1 C-terminal tail peptide 188-215; experiment: ELISA on biotinylated overlapping peptides
Protocol: as §1

[3] = biological target: T3, HMGB1 in joint lysate of adjuvant …; experiment: sandwich ELISA: antibody captured on anti-human Fc, AIA joint lysate added, mouse anti-HMGB1 detection, OD 450
Protocol: HMGB1 Detection from Biological Samples: For detection of the HMGB1 from AIA joint homogenates and peritonitis sera, sandwich ELISA was performed. Goat anti-human Fc (Pierce) 14 μg/ml in PBS was coated on Immunlon IV microtiter plate over night at 4° C. After washing and blocking with 5% milk 1 hr at room temperature, G4 or S6 in blocking buffer (10 μg/ml) were added to each well of the blocked plate. The plate was washed 1 hour later and 25 μl of AIA homogenates containing 0.8 μg/ml of HMGB1 or peritonitis sera containing 7 μg/ml of HMGB1 in 0.5 M NaCl/blocking buffer were added to the wells at two fold serial dilutions. The unbound materials were removed by washing one hr after incubation. The bound HMGB1 was detected by a mouse anti-HMGB1 antibody at 2 μg/ml followed by an anti-mouse antibody conjugated with horseradish peroxidase. Mouse peritonitis sera was obtained by heart puncture 7 days after infection with heat killed staphylococcus aureus. Joint lysate was prepared from the whole paw of AIA rats as described in Example 6 below. Human sepsis sera were purchased from a commercial source.

[4] = biological target: T5, recombinant HMG1 produced in E. coli as a calmodulin binding protein (CBP) fusion (human); experiment: sandwich ELISA, captured antibody and soluble HMG1, OD 450
T5 construct: also called rHMG1; rHMGB1
Protocol: Sandwich ELISA (soluble HMG1): Immunoplates (EIA/RIA plate, High binding, Costar) were coated with anti human IgG Fc at 10 μg/ml in PBS (pH 7.2) and incubated at 4° C. overnight. The coating reagent was removed and the plates were rinsed briefly with PBS. The plates were then blocked with 4% milk for 1 hour at 37° C. and rinsed with PBS. The anti-HMG1 antibodies were diluted in 4% milk. For serial dilutions, the antibodies were used at a starting concentration of 20 μg/ml. The diluted anti-HMG1 antibodies were then added into plate and incubated for 1 hr at 37° C. The plate was then washed 10 times with PBST (PBS/0.1% tween 20) and incubate with antigen (HMGB1, 2 μg/ml; or 0.7 μg/ml for native HMGB1) in 4% milk and incubated at 37° C. for 1 h. The plate was then wash 10 times and incubated with mouse anti-HMGB1, 1 μg/ml in 4% milk at 37° C. for 1 h. The plate was washed 10 times and incubated with anti-mouse IgG-HRP at 1:1000 at 37° C. for 1 h. The plate was then washed and developed. HRP activity was detected with Sureblue HRP substrate (KPL). Plates were read at 450 nm using a Kinetic Microplate Reader (Molecular Devices).

[5] = biological target: T4, recombinant rat HMGB-1 labelled with …; experiment: inhibition of binding of 2 nM Eu-labelled recombinant rat HMGB-1 to THP-1 cells
Protocol: HMG1 binding to THP-1 Cells: Recombinant rat HMGB-1 was labeled using Eu-labelling Kit from PerkinElmer. Molar ratio of HMGB-1 to Eu is 1:5. THP-1 were cultured as the protocol from ATCC. Cells were harvested and suspended at concentration 1×10⁶/ml in assay buffer containing 1×DELFIA L*R binding buffer (PerkinElmer), 50% of DELFIA stabilizer (PerkinElmer) and 0.05% of sodium azide. 100 μl of cells (1×10⁵) was added into wells in 96 well cell culture plate. The plate was incubated with gentle shaking at 4° C. for one hour. 100 μl of assay buffer containing 2 nM of Europium-labeled HMGB-1 mixed with various concentrations (333, 166.5, 83.25, 41.6, 20.8, 10.4 and 5.2 nM) of human anti-HMGB1 antibodies E11 or G2 or soluble human RAGE-Fc, were added into each wells respectively. After one hour incubation with gentle shaking at 4° C., the cells were washed four times with 1×L*R wash buffer (PerkinElmer) by centrifuging at 1200 rpm×5 min. 200 μl of enhancement solution was added into each well to dissociate and enhance Eu fluorescence at 615 nm. The fluorescence was measured with Wallac Victor Fluorometer. Assay was performed in triplicate and human antibody R3-47 was used the negative isotype control.

Row | Binder | binding result [1] | binding result [2] | binding result [3] | EC50 (read off the curve) [4] [µg/mL] | IC50 [5] [nM]
1 | B1 | binds | binds | binds |  | 
2 | B2 |  |  |  | ~0.4 | 48.1
